Experimental data as given in article PMC6768434.

Substrate: CC(NCCCC[C@H](N)C(=O)O)C(=O)O
Assay: purified protein
Conditions: 50 mM Tris pH 8.0, 5 μM FAD, 25 μM enzyme, 37 °C, CEL 1-13 mM

| Protein | Km [mM] | kcat [s⁻¹] | kcat/Km [M⁻¹ s⁻¹] |
| --- | --- | --- | --- |
| C-MnmC (Escherichia coli K-12) (protein) PCSAPWFNRTGSSKREAAIIGGGIASALLSLALLRRGWQVTLYCADEAPALGASGNRQGALYPLLSKHDEALNRFFSNAFTFARRFYDQLPVKFDHDWCGVTQLGWDEKSQHKIAQMLSMDLPAELAVAVEANAVEQITGVATNCSGITYPQGGWLCPAELTRNVLELAQQQGLQIYYQYQLQNLSRKDDCWLLNFAGDQQATHSVVVLANGHQISRFSQTSTLPVYSVAGQVSHIPTTPELAELKQVLCYDGYLTPQNPANQHHCIGASYHRGSEDTAYSEDDQQQNRQRLIDCFPQAQWAKEVDVSDKEARCGVRCATRDHLPMVGNVPDYEATLVEYASLAEQKDEAVSAPVFDDLFMFAALGSRGLCSAPLCAEILAAQMSDEPIPMDASTLAALNPNRLWVRKLLKGKAVKAG | 4.3 ± 0.6 | 0.003 ± 0.00015 | 0.7 ± 0.1 |
| MnmC (Escherichia coli K-12) (protein) MKHYSIQPANLEFNAEGTPVSRDFDDVYFSNDNGLEETRYVFLGGNQLEVRFPEHPHPLFVVAESGFGTGLNFLTLWQAFDQFREAHPQAQLQRLHFISFEKFPLTRADLALAHQHWPELAPWAEQLQAQWPMPLPGCHRLLLDEGRVTLDLWFGDINELTSQLDDSLNQKVDAWFLDGFAPAKNPDMWTQNLFNAMARLARPGGTLATFTSAGFVRRGLQDAGFTMQKRKGFGRKREMLCGVMEQTLPLPCSAPWFNRTGSSKREAAIIGGGIASALLSLALLRRGWQVTLYCADEAPALGASGNRQGALYPLLSKHDEALNRFFSNAFTFARRFYDQLPVKFDHDWCGVTQLGWDEKSQHKIAQMLSMDLPAELAVAVEANAVEQITGVATNCSGITYPQGGWLCPAELTRNVLELAQQQGLQIYYQYQLQNLSRKDDCWLLNFAGDQQATHSVVVLANGHQISRFSQTSTLPVYSVAGQVSHIPTTPELAELKQVLCYDGYLTPQNPANQHHCIGASYHRGSEDTAYSEDDQQQNRQRLIDCFPQAQWAKEVDVSDKEARCGVRCATRDHLPMVGNVPDYEATLVEYASLAEQKDEAVSAPVFDDLFMFAALGSRGLCSAPLCAEILAAQMSDEPIPMDASTLAALNPNRLWVRKLLKGKAVKAG | 5.2 ± 1.3 | 0.000667 ± 6.67e-05 | 0.133 ± 0.0167 |
